Test results reported in the supplement of paper PMC9112550, “Optimization of the antimicrobial peptide Bac7 by deep mutational scanning” (BMC Biology, 2022).

System: Escherichia coli TOP10
Assay: shrunken log2 fold change of peptide-encoding DNA abundance (4.5 h post-induction vs induction); higher = less antimicrobial activity (less host growth inhibition)
Conditions: time post-induction: 4.5 h; library: site-saturation at positions 5, 18, 19, 20
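Further: peptides expressed intracellularly from a pBAD plasmid library in pooled LB shake-flask culture, induced with 0.3% L-arabinose, DNA abundance read by NGS, three biological replicates, DESeq2 with apeglm shrinkage.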

| Sequence | shrunken log2 fold change |
| --- | --- |
| RRIRVRPPRLPRPRPRPVCCPRP | 0.0608 |
| RRIRERPPRLPRPRPRPYRRPRP | -0.0227 |
| RRIRHRPPRLPRPRPRPKYQPRP | -0.145 |
| RRIRIRPPRLPRPRPRPYEQPRP | -0.868 |
| RRIRERPPRLPRPRPRPATLPRP | -0.274 |
| RRIRDRPPRLPRPRPRPAQQPRP | -0.0267 |
| RRIRCRPPRLPRPRPRPPPDPRP | 1.26 |
| RRIRLRPPRLPRPRPRPRGMPRP | 0.239 |
| RRIRWRPPRLPRPRPRPHDPPRP | 0.23 |
| RRIRGRPPRLPRPRPRPKVHPRP | 0.598 |
| RRIRCRPPRLPRPRPRPCQHPRP | -0.161 |
| RRIRARPPRLPRPRPRPADPPRP | 0.611 |
| RRIRVRPPRLPRPRPRPFCHPRP | -0.264 |
| RRIRMRPPRLPRPRPRPKYCPRP | 0.0472 |
| RRIRWRPPRLPRPRPRPPAWPRP | 0.794 |
| RRIRYRPPRLPRPRPRPEDYPRP | -0.00116 |
| RRIRARPPRLPRPRPRPESQPRP | 0.454 |
| RRIRHRPPRLPRPRPRPIHTPRP | 0.00096 |
| RRIRIRPPRLPRPRPRPENAPRP | -0.0916 |
| RRIRHRPPRLPRPRPRPHYHPRP | -0.785 |
| RRIRSRPPRLPRPRPRPTEWPRP | 0.00483 |
| RRIRQRPPRLPRPRPRPNDTPRP | -0.752 |
| RRIRGRPPRLPRPRPRPPRSPRP | 1.19 |

| Sequence | shrunken log2 fold change |
| --- | --- |
| RRIRERPPRLPRPRPRPQDWPRP | -0.206 |
| RRIRMRPPRLPRPRPRPMNKPRP | -0.0775 |
| RRIRPRPPRLPRPRPRPNEGPRP | 0.0293 |
| RRIRWRPPRLPRPRPRPMPMPRP | 0.112 |
| RRIRHRPPRLPRPRPRPSREPRP | 0.0138 |
| RRIRSRPPRLPRPRPRPFHLPRP | -0.321 |
| RRIRCRPPRLPRPRPRPSLVPRP | -0.399 |
| RRIRSRPPRLPRPRPRPMNGPRP | -0.205 |
| RRIRWRPPRLPRPRPRPAFWPRP | 0.708 |
| RRIRDRPPRLPRPRPRPADPPRP | -0.155 |
| RRIRQRPPRLPRPRPRPVDSPRP | 0.0997 |
| RRIRCRPPRLPRPRPRPMQRPRP | 0.0282 |
| RRIRPRPPRLPRPRPRPNAMPRP | -0.324 |
| RRIRARPPRLPRPRPRPYRYPRP | -0.274 |
| RRIRVRPPRLPRPRPRPMRQPRP | 0.0326 |
| RRIRVRPPRLPRPRPRPWVCPRP | 0.133 |
| RRIRVRPPRLPRPRPRPEGWPRP | 0.762 |
| RRIRGRPPRLPRPRPRPSGYPRP | -0.167 |
| RRIRARPPRLPRPRPRPTLWPRP | 1.05 |
| RRIRKRPPRLPRPRPRPECLPRP | 0.182 |
| RRIRFRPPRLPRPRPRPSQTPRP | -0.304 |
| RRIRSRPPRLPRPRPRPDGWPRP | 0.278 |
| RRIRQRPPRLPRPRPRPTNYPRP | -0.248 |

| Sequence | shrunken log2 fold change |
| --- | --- |
| RRIRARPPRLPRPRPRPFTDPRP | 0.128 |
| RRIRMRPPRLPRPRPRPGSMPRP | 0.668 |
| RRIRTRPPRLPRPRPRPRINPRP | -0.506 |
| RRIRNRPPRLPRPRPRPYQSPRP | -0.00256 |
| RRIRRRPPRLPRPRPRPARSPRP | 0.512 |
| RRIRHRPPRLPRPRPRPSLVPRP | -0.264 |
| RRIRKRPPRLPRPRPRPQYSPRP | -0.906 |
| RRIRQRPPRLPRPRPRPYHQPRP | -0.631 |
| RRIRNRPPRLPRPRPRPIEMPRP | -0.141 |
| RRIRLRPPRLPRPRPRPDIGPRP | -0.189 |
| RRIRKRPPRLPRPRPRPNYYPRP | -0.305 |
| RRIRCRPPRLPRPRPRPYETPRP | 0.023 |
| RRIRGRPPRLPRPRPRPFGAPRP | 0.793 |
| RRIRMRPPRLPRPRPRPYTVPRP | 0.0221 |
| RRIRMRPPRLPRPRPRPEHEPRP | 0.0191 |
| RRIRERPPRLPRPRPRPEYTPRP | -0.313 |
| RRIRCRPPRLPRPRPRPFDCPRP | -0.95 |
| RRIRARPPRLPRPRPRPEEHPRP | -0.0106 |
| RRIRGRPPRLPRPRPRPYCPPRP | -0.333 |
| RRIRKRPPRLPRPRPRPWVDPRP | 0.572 |
| RRIRVRPPRLPRPRPRPHNLPRP | -0.356 |
| RRIRNRPPRLPRPRPRPCETPRP | -0.0224 |
| RRIRVRPPRLPRPRPRPKCYPRP | 0.0107 |

| Sequence | shrunken log2 fold change |
| --- | --- |
| RRIRSRPPRLPRPRPRPCNTPRP | -0.324 |
| RRIRHRPPRLPRPRPRPWVWPRP | 0.296 |
| RRIRNRPPRLPRPRPRPHWYPRP | -0.0582 |
| RRIRFRPPRLPRPRPRPQKMPRP | -0.221 |
| RRIRRRPPRLPRPRPRPHSWPRP | 0.333 |
| RRIRWRPPRLPRPRPRPYLSPRP | -0.242 |
| RRIRWRPPRLPRPRPRPLHSPRP | 0.215 |
| RRIRRRPPRLPRPRPRPREFPRP | 0.419 |
| RRIRYRPPRLPRPRPRPRLLPRP | -0.0826 |
| RRIRYRPPRLPRPRPRPTDSPRP | -0.678 |
| RRIRQRPPRLPRPRPRPTQIPRP | 0.223 |
| RRIRSRPPRLPRPRPRPAMDPRP | 0.0404 |
| RRIRSRPPRLPRPRPRPDKVPRP | 0.151 |
| RRIRGRPPRLPRPRPRPGRYPRP | -0.378 |
| RRIRARPPRLPRPRPRPAEGPRP | 0.818 |
| RRIRCRPPRLPRPRPRPRKWPRP | -0.0179 |
| RRIRTRPPRLPRPRPRPMCVPRP | 0.103 |
| RRIRNRPPRLPRPRPRPLHPPRP | 0.0757 |
| RRIRKRPPRLPRPRPRPFCYPRP | -0.14 |
| RRIRHRPPRLPRPRPRPIKFPRP | -0.0972 |
| RRIRYRPPRLPRPRPRPEFLPRP | -0.252 |
| RRIRKRPPRLPRPRPRPVLVPRP | -0.0465 |
